Laboratory results as given in article PMC8769338 (PLoS Pathogens, 2022).
Several values for one entry are separate records, joined by “and”; a condition that tells them apart may be missing. Equal values may be shown once.

B1: ciA-D1 (VHH)
VHH: QVQLVESGGGLVQPGGSLRLSCATSGFTLEYYAIGWFRQAPGKGREGVACMNSSGGGTNYADSVKGRFTISRDNAKKMVYLQMNSLKSEDTAVYYCVVDDFRCGSRWAAYLRSSWGQGTQVTVSS
notes: source: pET-32 vector, thioredoxin fusion, purified
B2: JPU-G11 (VHH)
VHH: QLQLVETGGGLVQPGGSLRLACVASESVFEMYTVAWYRQAPGKQRELVAGITDEGRTNYADFVKGRFTISRDNSKKTVHLQMDNLNPEDTAVYYCKLEHDLGYYDYWGQGTQVTVSS
notes: form of the ELISAs; source: pET-32 vector, thioredoxin fusion, purified
B3: JND-B4 (VHH)
VHH: QVQLVETGGGLVQPGGSLRLSCVASGFTLDSYAIGWFRQAPGKEREGVSCMSSGDGSTYYTNSVKGRFTISRDNAQNTVYLQMNSLKPEDTAVYYCAADGFDYCSAYVPGRGMNYSGKGTLVTVSS
notes: as for B1
B4: BLc-B10 (VHH)
VHH: QLQLVESGGGMVQPGGSLRLSCAASGFTFSTYDMSWVRQAPGKGPEWVSIINAGGGSTYYAASVKGRFAISRDNAKNTLYLQMNNLKPEDTALYYCARVASYYCRGYVCSPPEFDYWGQGTQVTVSS
notes: as for B1
B5: JPU-C10 (VHH)
VHH: QLQLVESGGGLVQPGGSLRLSCAASGNIFSIYYMGWYRQAPGKQREMVAIINSNGITNYGDFVKGRFTISRDNAENSAYLQMNNLTPEDTAVYYCNAGKLRRTTGWGLDDYWGQGTQVTVSS
notes: as for B2
B6: JND-E9 (VHH)
VHH: QVQLVETGGGLVQAGDSLRLSCAASGRTFNYYAMAWFRQAPGKEREFVAFINWSGDSTYYAGSVKGRFTISRDNAKNTVYLQMNNLKPEDTAVYSCAAEFGTFSYLQGDDYSYWGQGTQVTVSS
notes: as for B1
B7: JPU-A5 (VHH)
VHH: QVQLVETGGGLVQAGGSLRLSCTASGADFSFYAMGWYRQTPGNSRELVAVMNLNGVISYGDSARGRFDISRDGTKNIVFLQMNSLKPEDTGVYYCNGMRLYTRGSVRHPESWGQGIQVTVSS
notes: as for B2
B8: JLO-G7 (VHH)
VHH: QVQLVESGGGLVQAGGSLRLSCAASGFPFGSYYMSWVRQAPGKGPEWVSDISNGGIITRYSDSVKGRFTISRDNAKNILYLQMNSLKPEDTALYFCATGTGRDWSREYRGQGTQVTVSS
notes: as for B1
B9: JND-E5 (VHH)
VHH: QVQLVESGGLVQPGGSLRLSCAASGFTLDYYGIGWVRQAPGKEREEVSCITSGGLTNYPDSVKGRFTISRDNAKNTVYLQMNSLKPEDTAVYYCAIDRVGVCAMEDFGSWGQGTQVTVSS
notes: as for B1

Columns and labels:
Conditions in all cases: both partners purified
[1] = target: LC/A1 (light chain protease domain of BoNT/A1), as used in the ELISAs of Table 1 (Clostridium botulinum, BoNT/A1, UniProt P0DPI0); test: ELISA
[2] = target: T1, LC/B1 (light chain protease domain of BoNT/B1), as used in the ELISAs of Table 2 (Clostridium botulinum, BoNT/B1, UniProt P10844); test: ELISA
[3] = target: T1, LC/B1 (light chain protease domain of …); test: ELISA; dilution ELISA of VHH on LC/B coated to Nunc plastic
[4] = target: LC/A2, strep-tag fusion protein (Clostridium botulinum, BoNT/A2 (strain …, UniProt Q45894, strain)); test: ELISA

Row | Binder | EC50 [2] | further results
1 | B1 |  | EC50 [1]: 1 nM and 0.4 nM
2 | B2 |  | EC50 [1]: 1 nM and 0.5 nM
3 | B3 | 0.8 nM and 0.5 nM | 
4 | B4 | 5 nM and 10 nM | EC50 [3]: 0.3 nM
5 | B5 |  | binding result [4]: binds
6 | B6 | 1 nM and 0.5 nM | 
7 | B7 |  | binding result [4]: binds
8 | B8 | 0.5 nM | 
9 | B9 | 5 nM and 2 nM | 
